# Experimental data from US20240034813A1 (Janssen / Centocor, published 2024).
# B1: amivantamab (bispecific antibody, human IgG1, kappa)
# heavy 1: not shown
# light 1: not shown
# heavy 2: not shown
# light 2: DIQMTQSPSSVSASVGDRVTITCRASQGISNWLAWFQHKPGKAPKLLIYAASSLLSGVPSRFSGSGSGTDFTLTISSLQPEDFATYYCQQANSFPITFGQGTRLEIKRTVAAPSVFIFPPSDEQLKSGTASVVCLLNNFYPREAKVQWKVDNALQSGNSQESVTEQDSKDSTYSLSSTLTLSKADYEKHKVYACEVTHQGLSSPVTKSFNRGEC
# notes: The samples tested were high concentration (160 mg/mL) formulations, fresh or stored or stressed; also called JNJ-61186372; bispecific EGFR-cMet antibody
# Columns and labels:
# [1] = biological target: T1, recombinant human EGFR/ErbB1/HER1 with C-terminal His tag, Cy5-labeled (human, UniProt P00533 25-645, Cy5 label (reacted with Cy5 Mono NHS Ester; sites not stated)); assay: competitive TR-FRET (Eu-amivantamab/Cy5-EGFR), EC50 ratio vs Reference Material; Ex. 11 drug product, 0 months, 25 C table
# T1 construct: Commercial protein; also called Cy5-EGFR; Cy5-labeled EGFR antigen; not shown: C-terminal His tag
# Description: (§1) In this procedure, varying concentrations of unlabeled bispecific EGFR-cMet antibody sample compete with donor fluorophore (Europium (Eu) chelate) labeled bispecific EGFR-cMet antibody for binding to an acceptor fluorophore (Cy5)-labeled EGFR antigen. Excitation of the donor fluorophore results in a transfer of energy to the bound acceptor fluorophore (FRET process). The resultant FRET is detected by emission of light at 665 nm using a microplate reader capable of measuring time-resolved fluorescence. Sample dose response curves are compared to the RM.
# (§2) EGFR Binding Materials and Methods. Certified commercial EGFR, a recombinant human EGFR/ErbB1/HER1 with C-terminal His tag is reacted with certified commercial Cy5 Mono NHS Ester to produce Cy5-labeled EGFR. Validated bispecific EGFR-cMet antibody is reacted with certified commercial Europium (Eu) chelate to produce Eu-labeled bispecific EGFR-cMet antibody. […] Fluorescence is then measured by spectrophotometry at 665 nm, plotted against antibody concentration and analyzed by a four-parameter logistic model. The antibody concentration required to obtain half of the maximum fluorescence response (EC50) is determined for RM, assay control and samples. The potencies of assay control and samples are calculated based on the ratio of the sample (or control) and RM EC50 values and reported as a percentage activity relative to the RM.
# [2] = biological target: T1, recombinant human EGFR/ErbB1/HER1 with …; assay: competitive TR-FRET (Eu-amivantamab/Cy5-EGFR), EC50 ratio vs Reference Material; Ex. 2 Formulation 1 (10 mM histidine), 3 months at 40 C
# Description: as §1, §2
# [3] = biological target: T2, recombinant cMet/HGFR with c-terminal His-tag, Cy5-labeled (UniProt P08581 25-932, limits assumed, Cy5 label (reacted with Cy5 Mono NHS Ester; sites not stated)); assay: competitive TR-FRET (Eu-amivantamab/Cy5-c-MET), EC50 ratio vs Reference Material; Ex. 2 Formulation 3 (acetate), 3 months at 5 C
# T2 construct: Commercial protein; also called Cy5-c-MET; Cy5-labeled c-MET antigen; not shown: C-terminal His-tag
# Description: as §1, with “(Cy5)-labeled c-MET” for “(Cy5)-labeled EGFR”, “the Reference Material (RM).” for “the RM.”
# as §2, with “c-MET Binding” for “EGFR Binding”, “commercial cMet,” for “commercial EGFR,”, “recombinant cMet/HGFR” for “recombinant human EGFR/ErbB1/HER1”, “with c-terminal His-tag” for “with C-terminal His tag”, “Cy5-labeled c-MET.” for “Cy5-labeled EGFR.”, “produce Eu labeled” for “produce Eu-labeled”
# [4] = biological target: T2, recombinant cMet/HGFR with c-terminal …; assay: competitive TR-FRET (Eu-amivantamab/Cy5-c-MET), EC50 ratio vs Reference Material; Ex. 2 Formulation 1 (10 mM histidine), T0, 5 C table
# Description: as §1, with “(Cy5)-labeled c-MET” for “(Cy5)-labeled EGFR”, “the Reference Material (RM).” for “the RM.”
# as §2, with “c-MET Binding” for “EGFR Binding”, “commercial cMet,” for “commercial EGFR,”, “recombinant cMet/HGFR” for “recombinant human EGFR/ErbB1/HER1”, “with c-terminal His-tag” for “with C-terminal His tag”, “Cy5-labeled c-MET.” for “Cy5-labeled EGFR.”, “produce Eu labeled” for “produce Eu-labeled”
# [5] = biological target: T2, recombinant cMet/HGFR with c-terminal …; assay: competitive TR-FRET (Eu-amivantamab/Cy5-c-MET), EC50 ratio vs Reference Material; Ex. 12 drug product with rHuPH20, 3 months at 40 C
# Description: as §1, with “(Cy5)-labeled c-MET” for “(Cy5)-labeled EGFR”, “the Reference Material (RM).” for “the RM.”
# as §2, with “c-MET Binding” for “EGFR Binding”, “commercial cMet,” for “commercial EGFR,”, “recombinant cMet/HGFR” for “recombinant human EGFR/ErbB1/HER1”, “with c-terminal His-tag” for “with C-terminal His tag”, “Cy5-labeled c-MET.” for “Cy5-labeled EGFR.”, “produce Eu labeled” for “produce Eu-labeled”
# [6] = biological target: T1, recombinant human EGFR/ErbB1/HER1 with …; assay: competitive TR-FRET (Eu-amivantamab/Cy5-EGFR), EC50 ratio vs Reference Material; Ex. 11 drug product, 3 months at 40 C
# Description: as §1, §2
# [7] = biological target: T2, recombinant cMet/HGFR with c-terminal …; assay: competitive TR-FRET (Eu-amivantamab/Cy5-c-MET), EC50 ratio vs Reference Material; Ex. 11 drug product, 3 months at 40 C
# Description: as §1, with “(Cy5)-labeled c-MET” for “(Cy5)-labeled EGFR”, “the Reference Material (RM).” for “the RM.”
# as §2, with “c-MET Binding” for “EGFR Binding”, “commercial cMet,” for “commercial EGFR,”, “recombinant cMet/HGFR” for “recombinant human EGFR/ErbB1/HER1”, “with c-terminal His-tag” for “with C-terminal His tag”, “Cy5-labeled c-MET.” for “Cy5-labeled EGFR.”, “produce Eu labeled” for “produce Eu-labeled”
# [8] = biological target: T2, recombinant cMet/HGFR with c-terminal …; assay: competitive TR-FRET (Eu-amivantamab/Cy5-c-MET), EC50 ratio vs Reference Material; Ex. 11 drug product, 3 months at 25 C
# Description: as §1, with “(Cy5)-labeled c-MET” for “(Cy5)-labeled EGFR”, “the Reference Material (RM).” for “the RM.”
# as §2, with “c-MET Binding” for “EGFR Binding”, “commercial cMet,” for “commercial EGFR,”, “recombinant cMet/HGFR” for “recombinant human EGFR/ErbB1/HER1”, “with c-terminal His-tag” for “with C-terminal His tag”, “Cy5-labeled c-MET.” for “Cy5-labeled EGFR.”, “produce Eu labeled” for “produce Eu-labeled”
# [9] = biological target: T1, recombinant human EGFR/ErbB1/HER1 with …; assay: competitive TR-FRET (Eu-amivantamab/Cy5-EGFR), EC50 ratio vs Reference Material; Ex. 12 drug product with rHuPH20, 0 months, 25 C table
# Description: as §1, §2
binder,measurement,setting,value
B1,EGFR Binding activity relative to Reference Material (%),[1],89%
same,EGFR Binding % activity relative to RM,[2],41%
same,cMET Binding % activity relative to RM,[3],109%
same,cMET Binding % activity relative to RM,[4],87%
same,cMET Binding activity relative to Reference Material (%),[5],68%
same,EGFR Binding activity relative to Reference Material (%),[6],8%
same,cMET Binding activity relative to Reference Material (%),[7],78%
same,cMET Binding activity relative to Reference Material (%),[8],94%
same,EGFR Binding activity relative to Reference Material (%),[9],92%
